B1: CPEB3 Ribozyme (parent)
chain: GGGGGCCACAGCAGAAGCGUUCACGUCGCGGCCCCUGUCAGAUUCUGGUGAAUCUGCGAAUUCUGCUGU

This data set covers variants of B1. The data set can be described thus: self-cleavage, relative activity (ratio to wild type); higher = more cleavage; co-transcriptional.
For GGGGGCCACAGCAGAAGCGUUCACGUCGCGGCCCCUGUCAGAUACUGGUGAUUCUGCGAAUUCUGCUGU [U44A A52U], the self-cleavage is 0.969.
On to GGGGGCCACAGCAGAAGCGUUCACGUCGCGGCCCCUGUCAGAUACUGGUGAAUCUGCGAAUUAUGCUGU [U44A C63A], for which the self-cleavage amounted to 0.731.
Regarding GGGGGCCACAGCAGAAGCGUUCACGUCGCGGCCCCUGUCAGAUACUGGUCAAUCUGCGAAUUCUGCUGU [U44A G50C], the self-cleavage came to 1.
For GGGGGCCACAGCAGAAGCGUUCACGUCGCGGCCCCUGUCAGAUACUGGUUAAUCUGCGAAUUCUGCUGU [U44A G50U] the value was 0.984; for GGGGGCCACAGCAGAAGCGUUCACGUCGCGGCCCCUGUCAGAGUCCGGUGAAUCUGCGAAUUCUGCUGU [U43G U46C], 0.677.
For GGGGGCCACAGCAGAAGCGUUCACGUCGCGGCCCCUGUCAGAGUCGGGUGAAUCUGCGAAUUCUGCUGU [U43G U46G], the self-cleavage was 0.915.
For GGGGGCCACAGCAGAAGCGUUCACGUCGCGGCCCCUGUCAGAUACUGGUGAAUCUGCGUAUUCUGCUGU [U44A A59U] the value was 0.725; for GGGGGCCACAGCAGAAGCGUUCACGUCGCGGCCCCUGUCAGAUACUGGUGAAUCUGCGGAUUCUGCUGU [U44A A59G], 0.924.
For GGGGGCCACAGCAGAAGCGUUCACGUCGCGGCCCCUGUCAGAUACUGGUGAAUCUGCGCAUUCUGCUGU [U44A A59C] the value was 0.638; for GGGGGCCACAGCAGAAGCGUUCACGUCGCGGCCCCUGUCAGAGUCUGGUGAAUCUGCGAAUGCUGCUGU [U43G U62G], 0.468.
For the variant GGGGGCCACAGCAGAAGCGUUCACGUCGCGGCCCCUGUCAGAUACUGGUGAAUCUGCGAACUCUGCUGU [U44A U61C], the self-cleavage worked out at 0.662.
The figure for GGGGGCCACAGCAGAAGCGUUCACGUCGCGGCCCCUGUCAGAUACUGGUGAAUCUGCGAAAUCUGCUGU [U44A U61A] is 0.843; for GGGGGCCACAGCAGAAGCGUUCACGUCGCGGCCCCUGUCAGAUACUGGUGAAUCUGCGAAUUCUGCUAU [U44A G68A] it is 0.964; for GGGGGCCACAGCAGAAGCGUUCACGUCGCGGCCCCUGUCAGAUACUGGUGAAUCUGCGAAUUCUGCUCU [U44A G68C] it is 1.01.
The figure for GGGGGCCACAGCAGAAGCGUUCACGUCGCGGCCCCUGUCAGAUACUGGUGAAUCUGCGAAUUCUGCUUU [U44A G68U] is 0.981.
For GGGGGCCACAGCAGAAGCGUUCACGUCGCGGCCCCUGUCAGAUACUGGUGAAUCUGCGAAUUCUACUGU [U44A G65A], the self-cleavage is 0.755.
For GGGGGCCACAGCAGAAGCGUUCACGUCGCGGCCCCUGUCAGAUACUGGUGAAUCUGCGAAUUCUUCUGU [U44A G65U] the value was 0.588; for GGGGGCCACAGCAGAAGCGUUCACGUCGCGGCCCCUGUCAGAUACUGGUGAAUCUGCGAAUUCUCCUGU [U44A G65C], 0.422; for GGGGGCCACAGCAGAAGCGUUCACGUCGCGGCCCCUGUCAGAUACUGGUGAAUCUGCGAAUCCUGCUGU [U44A U62C], 0.774.
Turning to GGGGGCCACAGCAGAAGCGUUCACGUCGCGGCCCCUGUCAGAUACUGGUGAAUCUGCGAAUGCUGCUGU [U44A U62G], the self-cleavage stood at 0.685.
The figure for GGGGGCCACAGCAGAAGCGUUCACGUCGCGGCCCCUGUCAGAUACUGGGGAAUCUGCGAAUUCUGCUGU [U44A U49G] is 0.993; for GGGGGCCACAGCAGAAGCGUUCACGUCGCGGCCCCUGUCAGAUACUGGAGAAUCUGCGAAUUCUGCUGU [U44A U49A] it is 1.02; for GGGGGCCACAGCAGAAGCGUUCACGUCGCGGCCCCUGUCAGAUACAGGUGAAUCUGCGAAUUCUGCUGU [U44A U46A] it is 0.99.
For GGGGGCCACAGCAGAAGCGUUCACGUCGCGGCCCCUGUCAGAUACUGGUGAAUCCGCGAAUUCUGCUGU [U44A U55C] the value was 0.496; for GGGGGCCACAGCAGAAGCGUUCACGUCGCGGCCCCUGUCAGAUACUGGUGAAUCAGCGAAUUCUGCUGU [U44A U55A], 0.566; for GGGGGCCACAGCAGAAGCGUUCACGUCGCGGCCCCUGUCAGAGUCUGGUGAAUCGGCGAAUUCUGCUGU [U43G U55G], 0.264.
For GGGGGCCACAGCAGAAGCGUUCACGUCGCGGCCCCUGUCAGAGUCUGGUGAAUCAGCGAAUUCUGCUGU [U43G U55A] the value was 0.486; for GGGGGCCACAGCAGAAGCGUUCACGUCGCGGCCCCUGUCAGAUACUGGUGAAACUGCGAAUUCUGCUGU [U44A U53A], 0.922.
Turning to GGGGGCCACAGCAGAAGCGUUCACGUCGCGGCCCCUGUCAGAUACUGGUGAACCUGCGAAUUCUGCUGU [U44A U53C], the self-cleavage worked out at 0.684.
For GGGGGCCACAGCAGAAGCGUUCACGUCGCGGCCCCUGUCAGAUACUGGUGAAGCUGCGAAUUCUGCUGU [U44A U53G] the value was 0.84.
On to GGGGGCCACAGCAGAAGCGUUCACGUCGCGGCCCCUGUCAGAGUCUGGUGAAUCUACGAAUUCUGCUGU [U43G G56A], for which the self-cleavage amounted to 0.481.
For GGGGGCCACAGCAGAAGCGUUCACGUCGCGGCCCCUGUCAGAGUCUGGUGAAUCUCCGAAUUCUGCUGU [U43G G56C] the value was 0.329; for GGGGGCCACAGCAGAAGCGUUCACGUCGCGGCCCCUGUCAGAUACUGGUGAAUCUGCGAAUUCUGUUGU [U44A C66U], 0.926; for GGGGGCCACAGCAGAAGCGUUCACGUCGCGGCCCCUGUCAGAUACUGGUGAAUCUGCGAAUUCUGGUGU [U44A C66G], 0.658.
The figure for GGGGGCCACAGCAGAAGCGUUCACGUCGCGGCCCCUGUCAGAUACUGGUGAAUCUACGAAUUCUGCUGU [U44A G56A] is 0.849.
For GGGGGCCACAGCAGAAGCGUUCACGUCGCGGCCCCUGUCAGAUACUGGUGAAUCUCCGAAUUCUGCUGU [U44A G56C] the value was 0.383; for GGGGGCCACAGCAGAAGCGUUCACGUCGCGGCCCCUGUCAGAGUCUGGUUAAUCUGCGAAUUCUGCUGU [U43G G50U], 0.952; for GGGGGCCACAGCAGAAGCGUUCACGUCGCGGCCCCUGUCAGAGUCUGGUGAAUCUGCGAAUUCUGCUAU [U43G G68A], 0.948.
As for GGGGGCCACAGCAGAAGCGUUCACGUCGCGGCCCCUGUCAGAGUCUGGUGAAUCUGCGAAUUCUGCUUU [U43G G68U], the self-cleavage came out at 0.901.

Source of the values: the RNAGym collection of RNA variant scans (doi:10.7554/elife.80360).
